Measurements taken from article PMC4882581, “Characterisation of assembly and ubiquitylation by the RBCC motif of Trim5α” (Scientific Reports, 2016).

Key:
[1] = molecular target: the molecule itself; experiment: AUC; sedimentation velocity, c(S) analysis, and isotherm of the weight-averaged S fit to a monomer-trimer model (monomer to trimer, RhT5 1–261dCC); 20 °C; 10 mM Tris/HCl pH 7.8, 150 mM NaCl; 50 krpm (RhT5 94–141, RhT5 88–261dCC) or 38 krpm (RhT5 1–261dCC)
[2] = molecular target: the molecule itself; experiment: AUC; multi-speed sedimentation equilibrium; monomer to trimer; three concentrations (0.125, 0.25, 0.5 mg/ml); 14,000, 18,000 and 22,000 rpm; 20 °C; 10 mM Tris/HCl pH 7.8, 150 mM NaCl; fit in SEDPHAT

B1: RhT5 94–141 (Trim5α Bbox domain alone, residues 94–141) (domain or fragment, Rhesus macaque, UniProt Q0PF16 94-141, looked up)
chain: VDHCARHGEKLLLFCQEDSKVICWLCERSQEHRGHHTFLMEEVAQEYH
notes: Trim5α, Rhesus macaque, Bbox domain, residues 94–141; Cloned into pET47b (N-terminal His-tag) or pET49b (N-terminal GST-tag); purified by IMAC, so the His-tag vector is surmised; also called RhT5α 94–141; Bbox only construct; source: E. coli BL21(DE3), purified (IMAC, 3C cleavage, anion exchange, SEC); not shown: His-tag, N-terminal, cleaved
For B1, the “stoichiometry N” value [1] was 2.

B2: RhT5 88–261dCC (wild type) (domain or fragment, Rhesus macaque)
chain: PEEGQKVDHCARHGEKLLLFCQEDSKVICWLCERSQEHRGHHTFLMEEVAQEYHVKLQTALEMLRQKGGDPYMRELISELEHRLQGSMMDLLQGVDGIIKRIEN
notes: Trim5α, Rhesus macaque, Bbox-CC, residues Pro88-Lys154; Trim5α, Rhesus macaque, CC-L2, residues Tyr229-Asn261; In a monomer-trimer equilibrium; Vector pET47b or pET49b; IMAC purification, so the His-tag is surmised; also called RhT5 88–216dCC (as printed once); source: E. coli BL21(DE3), purified (IMAC, 3C cleavage, anion exchange, SEC); not shown: His-tag, N-terminal, cleaved
In the case of B2, the “stoichiometry N” value [2] is reported as 3.

B3: RhT5 1–261dCC (RhT5 1–261Δ155–228), wild type (domain or fragment, Rhesus macaque)
chain: MASGILLNVKEEVTCPICLELLTEPLSLHCGHSFCQACITANHKKSMLYKEGERSCPVCRISYQPENIQPNRHVANIVEKLREVKLSPEEGQKVDHCARHGEKLLLFCQEDSKVICWLCERSQEHRGHHTFLMEEVAQEYHVKLQTALEMLRQKGGDPYMRELISELEHRLQGSMMDLLQGVDGIIKRIEN
notes: Trim5α, Rhesus macaque, RING, L1, Bbox and start of the coiled-coil, residues 1–154; In a monomer-trimer equilibrium (trimer mass printed 67.8 kDa); also called Wt; source: expressed in LB broth with IPTG; purified (amylose resin, on column 3C protease cleavage, anion exchange); not shown: MBP, C-terminal, cleaved
In the case of B3, the “stoichiometry N” value [1] is reported as 3.
